B1: BK polyomavirus minor capsid protein VP2 (natural protein)
chain: MGAALALLGDLVASVSEAAAATGFSVAEIAAGEAAAAIEVQIASLATVEGITSTSEAIAAIGLTPQTYAVIAGAPGAIAGFAALIQTVSGISSLAQVGYRFFSDWDHKVSTVGLYQQSGMALELFNPDEYYDILFPGVNTFVNNIQYLDPRHWGPSLFATISQALWHVIRDDIPSITSQELQRRTERFFRDSLARFLEETTWTIVNAPINFYNYIQQYYSDLSPIRPSMVRQVAEREGTRVHFGHTYSIDDADSIEEVTQRMDLRNQQSVHSGEFIEKTIAPGGANQRTAPQWMLPLLLGLYGTVTPALEAYEDGPNQKKRRVSRGSSQKAKGTRASAKTTNKRRSRSSRS
notes: Minor capsid protein VP2 of BK polyomavirus, Dunlop strain; printed mass 38.3 kDa; same open reading frame as VP3, with an extended N terminus; The introduction says the extended N terminus of VP2 holds a site for myristoylation; also called VP2/3; VP2/VP3; source: Vero cells transfected/infected with the BK Dunlop genome; in purified virions (CsCl gradient, 1-MDa centrifugal concentrator)
B2: BK polyomavirus major capsid protein VP1 (native infectious virion, Dunlop strain) (natural protein)
chain: MAPTKRKGECPGAAPKKPKEPVQVPKLLIKGGVEVLEVKTGVDAITEVECFLNPEMGDPDENLRGFSLKLSAENDFSSDSPERKMLPCYSTARIPLPNLNEDLTCGNLLMWEAVTVQTEVIGITSMLNLHAGSQKVHEHGGGKPIQGSNFHFFAVGGEPLEMQGVLMNYRSKYPDGTITPKNPTAQSQVMNTDHKAYLDKNNAYPVECWVPDPSRNENARYFGTFTGGENVPPVLHVTNTATTVLLDEQGVGPLCKADSLYVSAADICGLFTNSSGTQQWRGLARYFKIRLRKRSVKNPYPISFLLSDLINRRTQRVDGQPMYGMESQVEEVRVFDGTERLPGDPDMIRYIDKQGQLQTKML
notes: Major capsid protein VP1 of BK polyomavirus, Dunlop strain, as assembled in the native virion; Five copies form one penton; 72 pentons form the T = 7d capsid, with VP1 in six quasi-equivalent conformations; PDB 5FUA is a homology model of BK VP1 (built on SV40, PDB 1SVA) fitted into the virion map; also called BK VP1; BKPyV VP1; source: Vero cells transfected/infected with the BK Dunlop genome; …
B3: BK polyomavirus minor capsid protein VP3 (natural protein)
chain: MALELFNPDEYYDILFPGVNTFVNNIQYLDPRHWGPSLFATISQALWHVIRDDIPSITSQELQRRTERFFRDSLARFLEETTWTIVNAPINFYNYIQQYYSDLSPIRPSMVRQVAEREGTRVHFGHTYSIDDADSIEEVTQRMDLRNQQSVHSGEFIEKTIAPGGANQRTAPQWMLPLLLGLYGTVTPALEAYEDGPNQKKRRVSRGSSQKAKGTRASAKTTNKRRSRSSRS
notes: Minor capsid protein VP3 of BK polyomavirus, Dunlop strain; printed mass 26.7 kDa; expressed from the same open reading frame as VP2 but without VP2's extended N terminus; also called VP2/3; VP2/VP3; source: Vero cells transfected/infected with the BK Dunlop genome; in purified virions (CsCl gradient, 1-MDa centrifugal concentrator)

How the values were obtained:
[1] = target: BK polyomavirus major capsid protein VP1 (VP1-only virus-like particle) (BK polyomavirus) (UniProt P03088); assay: cryo-EM structure; purified VP1-only VLPs in buffer A supplemented with 50 mM CaCl2, vitrified; FEI Polara, K2 summit in super-resolution mode; icosahedral single-particle reconstruction in RELION, 9.1 Å
[2] = target: B2; assay: cryo-EM structure; purified native BK virions in buffer A (10 mM HEPES pH 7.9, 1 mM CaCl2, 1 mM MgCl2, 5 mM KCl), vitrified; FEI Tecnai-F20, 200 kV, K2-Summit; icosahedral single-particle reconstruction in RELION, 7.6 Å; details: both partners purified
[3] = target: the molecule itself; assay: as above

For “BK polyomavirus major capsid protein VP1 (VP1-only virus-like particle) (from UniProt P03088 1-362) (natural protein)”, the stoichiometry N [1] was 5.

B1: binds [2].

With B2 the “stoichiometry N” value [3] was 5.

B3: binds [2].

Reference: PMC4826271, “New Structural Insights into the Genome and Minor Capsid Proteins of BK Polyomavirus using Cryo-Electron Microscopy” (Structure(London, England:1993), 2016)
